Laboratory results reported in patent publication US12544428B2, “Controlled-release CNP agonists with reduced side-effects” (ASCENDIS PHARMA GROWTH DISORDERS A/S, priority 2016, dated 2026).
Read-outs that look alike come from different tables or passages of the source.

Legend:
[1] = 0.146 mg CNP-38 eq/kg
Procedure: (§1) Plasma total CNP-38 concentrations (conjugated and released CNP-38) were determined by quantification of the N-terminal signature peptide (sequence: […]) and C-terminal signature peptide (sequence: […]) after tryptic digestion.
(§2) LC-MS analysis was carried out by using an Agilent 1290 UPLC coupled to an Agilent 6550 iFunnel Q-TOF mass spectrometer via an ESI probe. Chromatography was performed on a Waters Acquity BEH300 C18 analytical column (50×2.1 mm I.D., 1.7 μm particle size) with pre-filter at a flow rate of 0.25 mL/min (T=25° C.). Water (UPLC grade) containing 0.2% formic acid (v/v) was used as mobile phase A and acetonitrile (UPLC grade) with 0.2% formic acid as mobile phase B. The gradient system comprised a short isocratic step at the initial parameters of 0.1% B for 3.0 min followed by a linear increase from 0.1% B to 16% B in 17 min. Mass analysis was performed in the single ion monitoring (SIM) mode, monitoring the ions m/z 482.75 [M+2H]^2+ (N-terminal) and m/z 824.36 [M+H]^1+ (C-terminal). As internal standard deuterated CNP-38 peptide was used.
(§3) Calibration standards of CNP-38 conjugate in blank plasma were prepared as follows: The thawed Li-heparin cynomolgous plasma was first homogenized, then centrifuged for 5 minutes. […] These solutions were used for the generation of a calibration curve.
(§4) For sample preparation, protein precipitation was carried out by addition of 300 μL of pre-cooled (0° C.) methanol to 100 μL of the plasma sample. 200 μL of the supernatant were transferred into a new well-plate and evaporated to dryness (under a gentle nitrogen stream at 35° C.). 100 μL of reconstitution solvent (Thermo digestion buffer, order number 60109-101, Thermo Fisher Scientific GmbH, Dreieich, Germany) were used to dissolve the residue. 20 μg of trypsin (order number V5111, Promega GmbH, Mannheim, Germany) were dissolved in 20 μL of 10 mM acetic acid. 2 μL of the trypsin solution were added to each cavity.
(§5) After 4 hours incubation at 37° C. (water bath), 5 μL of a 0.5 M TCEP solution were added to each cavity and incubated again for 5 min at 96° C. After the samples had cooled to room temperature, 3 μL acetonitrile were added. The eluates were transferred into vials. 10 μL were injected into the UPLC-MS system.
Blood samples were collected up to 168 h post dose, and plasma was generated. Plasma total CNP-38 concentrations were determined by quantification of the N-terminal signature peptide (sequence: […]) and C-terminal signature peptide (sequence: […]) after tryptic digestion as described in Materials and Methods.

[2] = 0.146 mg CNP-38 eq/kg; remark: listed apart in the source
Procedure: as §1, §2, §3, §4, §5
Male cynomolgus monkeys (2-4 years old, 3-5 kg) received either a single subcutaneous administration (n=3 animals) of compound 10f or a single subcutaneous (n=3 animals) administration of 11i at a dose of 0.146 mg CNP-38 eq/kg. Blood samples were collected up to 168 h post dose, and plasma was generated. Plasma levels of total CNP-38 content were analyzed as described in example 24. In order to analyze the plasma content of free CNP-38, the blood samples were acidified after withdrawal by adding 20 vol % of 0.5 M sodium citrate buffer pH 4 to stop further CNP-38 release from the conjugate. Free CNP-38 levels in plasma can e.g. be determined by ELISA using a CNP antibody that binds to the ring region of CNP, as described in the literature (U.S. Pat. No. 8,377,884 B2), or by LC-MS/MS.

Substance | half life time of CNP-38 content ([1]; single intravenous injection, plasma total CNP-38) | CNP-38 tmax ([1]; single intravenous injection, plasma total CNP-38, earliest time point analyzed) [h] | dose site reactions ([1]; single iv or sc dose) | tolerability of dose administrations ([1]; single iv or sc dose) | CNP-38 concentration at 168 h ([1]; single subcutaneous injection) | CNP-38 tmax ([1]; single subcutaneous injection, plasma total CNP-38) [h] | bioavailability ([1]; subcutaneous vs intravenous) | dose site reactions ([2]; single sc) | tolerability of dose administrations ([2]; single sc) | Total CNP-38 plasma levels after 120 h ([2]; single sc, C-terminal peptide, below LOQ) [ng/mL] | total CNP-38 tmax ([2]; single subcutaneous administration) [h]
Permanent Lys26 CNP-38 PEG4×10 kDa Conjugate [Compound 12g] | approx. 24 h | 0.25 | No dose site reactions were observed | well tolerated | ca. 50 % of cmax | 48 | ca. 50% |  |  |  | 
Reversible Lys26 CNP-38 PEG2×20 kDa Conjugate [Compound 10f] |  |  |  |  |  |  |  | No dose site reactions were observed | well tolerated | < 100 | 12
